11 molecules from patent US20140005126A1 (ISOGENICA, published 2014) can be followed below.

Test [1] has as its target T1, human serum albumin (human, UniProt P02768 25-609).
T1 construct: also called HSA
As to the kind of experiment: phage ELISA for specificity: 50 ng of each protein coated per well, absorbance at 450 nm; six bars per clone in the order of the legend: VEGFR2, human IgG, monoclonal antibody, enzyme, HSA, blocked well. The procedure:
(§1) ELISAs were then performed to screen for modified WW domain peptides that bind to the target ligand. NUNC Maxisorp plates were coated with 50 ng per well of VEGFR2 in PBS overnight at 4° C. After blocking the plates with PBS, 2% BSA, 0.1% Tween-20, phage displaying the selected clones were added, diluted in blocking buffer, and incubated for 1 hour. WW domain binders were detected using horseradish peroxidase-conjugated anti-M13 antibody (GE) and SureBlue TMB peroxidase substrate (Insight Biotechnology, Middlesex, UK); and the ELISA signal was read at 450 nm.
The specificity of clones selected for binding to VEGFR2 was assayed in an ELISA against a selection of non-target peptides/proteins, as described above. 50 ng of each of the different target and non-target proteins was coated per well of and ELISA plate and each of the modified WW domain peptides was added.
Background: An ELISA detects its analyte on a solid surface through an enzyme-linked reagent.

The target of test [2] is T2, VEGFR2-Fc fusion.
T2 construct: Bought from R&D Systems
Put plainly: phage ELISA: phage-displayed clone on wells coated with 50 ng VEGFR2, anti-M13-HRP, absorbance at 450 nm; control: uncoated blocked wells (light bars). The procedure:
as §1

A further test addresses T3, Human β-NGF (human, UniProt P01138 123-240, limits assumed).
T3 construct: R&D Systems; It was biotinylated via carboxyl groups for the selection
Put plainly: phage ELISA: phage-displayed clone on NGF-coated wells (left bar of each pair), read at 450 nm; control: HSA-coated wells (right bar).

In test [3] the target is T1, human serum albumin. Put plainly: phage ELISA: phage-displayed clone on HSA-coated control wells (right bar of each pair), read at 450 nm.
For test [4], the target named is T2, VEGFR2-Fc fusion. As to the kind of experiment: biolayer interferometry (Octet Red), biotinylated WW-B1 on streptavidin sensors, VEGFR2-Fc 1 to 100 nM, steady state analysis. The procedure:
Real time binding assays between chemically synthesised clone WW-B1 and VEGFR2-Fc fusion were performed using biolayer interferometry with an Octet Red system (Fortebio, Menlo Park, Calif.). Biotinylated WW-B1 was immobilised to streptavidin biosensors (Fortebio) at a concentration of 50 ng/μl in PBS. Association curves were then detected by incubating WW-B1-coated sensors with different concentrations of VEGFR2 (1 to 100 nM in PBS), and dissociations were detected by incubating the sensors in PBS. The dissociation constant for WW-B1 binding to VEGFR2 was determined by steady state analysis to be 44 nM±1.1 nM (FIG. 5).
(BLI is a label-free optical method that tracks binding on a fibre tip over time.)

Test [5] has as its target T2, VEGFR2-Fc fusion. Put plainly: biolayer interferometry (Octet Red), peptide on streptavidin sensors, steady state analysis; cyclised WW-B1, steady state analysis. The procedure:
Real-time binding assays between the peptides and VEGFR2-Fc fusion were performed using biolayer interferometry with an Octet Red system (Fortebio, Menlo Park, Calif.). WW peptides were immobilised on streptavidin biosensors (Fortebio) at a concentration of 2 μg/ml in kinetic buffer. Association curves were then detected by incubating the immobilised peptide with […] (1 to 100 nM in kinetic buffer), and dissociations were detected by incubating the sensors in kinetic buffer. All of the peptides from the affinity maturation, bind to VEGFR2 with a similar affinity as WW-B1.
The dissociation constant for cyclised WW-B1 binding to VEGFR2 was determined by steady state analysis to be 31 nM±4.8 nM (FIG. 12).

Test [6] concerns the target T2, VEGFR2-Fc fusion. Put plainly: competition ELISA: inhibition of VEGFR2 binding to coated VEGF by WW-B1-MBP. The procedure: A competition assay was carried out in which binding of VEGFR2 to VEGF-A (VEGF) was competed by the presence of varying amounts of the selected modified WW domain peptide.
50 ng human VEGF (R&D Systems, Abingdon, UK) 1 μg/ml in PBS was coated per well onto a Maxisorp plate at 37° C. for 140 minutes. The wells were then blocked with 100 μl PBS containing 2% BSA for 55 minutes at room temperature. 1.25 ng VEGFR2 was preincubated with WW-B1 fused to maltose binding protein (MBP) in 50 μl PBS for 45 minutes at room temperature. The activity of the WW-B1 peptide was tested at serial dilutions from 10 μM to 156.25 nM. 50 μl 4% BSA in PBS was added to the preincubated VEGFR2 with WW-B1-MBP and the whole mixture was then added to the VEGF coated ELISA plate and incubated at room temperature for 55 minutes. The plate was then washed with 3 washes in PBS-Tween and 2 washes in PBS. Next 50 μl/well penta His-HRP (QIAgen, diluted 1:500 in 2% BSA in PBS) was added and the mixture incubated at room temperature for 55 minutes, before washing as before. ELISA signals were detected using SureBlue TMB peroxidase substrate (Insight biotechnology, Middlesex, UK) at 450 nm.
As a control, the above process was repeated with wild-type Pin1 WW domain peptide replacing WW-B1. The results are illustrated in FIG. 6.

Bridges are numbered along the chain shown (N, C = ends). Where no end group is shown, it is not given here. The star is where a group is joined. Biotin = O=C1N[C@H]2[C@H](CS[C@H]2CCCCC(=O)*)N1

T1 sequence (P02768 25-609 limits assumed): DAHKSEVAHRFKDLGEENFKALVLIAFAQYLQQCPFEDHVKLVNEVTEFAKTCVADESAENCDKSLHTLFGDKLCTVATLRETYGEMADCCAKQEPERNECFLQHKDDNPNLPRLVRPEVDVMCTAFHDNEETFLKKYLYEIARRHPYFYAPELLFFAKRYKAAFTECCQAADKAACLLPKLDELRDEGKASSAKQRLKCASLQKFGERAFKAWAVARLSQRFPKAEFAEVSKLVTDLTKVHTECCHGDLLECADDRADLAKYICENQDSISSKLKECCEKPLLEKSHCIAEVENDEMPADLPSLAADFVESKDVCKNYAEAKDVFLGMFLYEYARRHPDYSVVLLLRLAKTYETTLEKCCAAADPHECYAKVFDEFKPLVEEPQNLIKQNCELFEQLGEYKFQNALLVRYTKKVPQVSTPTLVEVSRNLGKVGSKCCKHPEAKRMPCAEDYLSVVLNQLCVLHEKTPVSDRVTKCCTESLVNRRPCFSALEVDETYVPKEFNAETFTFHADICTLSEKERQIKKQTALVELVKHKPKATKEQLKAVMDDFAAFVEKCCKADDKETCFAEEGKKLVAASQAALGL
T3 sequence (P01138 123-240 limits assumed): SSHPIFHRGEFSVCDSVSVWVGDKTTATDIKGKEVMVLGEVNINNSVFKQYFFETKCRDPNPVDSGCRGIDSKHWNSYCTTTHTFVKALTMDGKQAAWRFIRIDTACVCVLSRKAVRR

Take MADEEKLPPGWGKGWSPRGRVWYTNRTTVAAQWERPSG (designed binder, not shown: large carriers, also: fused to gpIII (M13 phage display), linker not given here) [clone H4, phage-displayed modified Pin1 WW domain peptide]: the values for the binding result in the test with human serum albumin [1] and with VEGFR2-Fc fusion [2] were “no binding” and “binds”, respectively.
Take MADEEKLPPGWAVWSPDGRLYYWNSVIVSTRWGRPSC (designed binder, not shown: large carriers, also: fused to gpIII (M13 phage display), linker not given here) [clone NP-A12, phage-displayed modified Pin1 WW domain peptide]: the binding result with Human β-NGF is reported as “binds”; with human serum albumin [3], “no binding”.
Taken in the same sequence, the figures for MADEEKLPPGWTVWSPNGRVYYWNSITVARQWERPSG (designed binder, not shown: large carriers, also: fused to gpIII (M13 phage display), linker not given here) [clone NP-H8, phage-displayed modified Pin1 WW domain peptide] were “binds” and “no binding”.
As to MADEEKLPPGWGKPWSARGRVTYINLITVAEQWERPS (designed binder) [NP-E3], the binding result with human serum albumin [3] is given as “no binding”.

B1: WW-B1 VEGFR2 WW domain, chemically synthesised, biotinylated (linear) (designed binder)
peptide: Biotin-MADEEKLPPGWYKMWSSPGRVLYVNDITHAHRWERPSG
modifications: not fully specified
notes: Modified Pin1 WW domain; also called linear WW-B1; clone WW-B1
With B1, in the test with VEGFR2-Fc fusion [4], the Kd – broadly, the free concentration of one partner at which half of the binding sites on the other are occupied at equilibrium, for simple one-to-one binding – was 0.044 µM.

B2: cyclic WW-B1 peptide (Glu38 variant), cyclised through amino acids at positions 6 and 38 (designed binder)
peptide: Biotin-DEEKLPPGWYKMWSSPGRVLYVNDITHAHRWERPEG-NH2
modifications: lactam 4-35
SMILES: CC[C@H](C)[C@@H]1NC(=O)[C@H](CC(=O)O)NC(=O)[C@H](CC(N)=O)NC(=O)[C@H](C(C)C)NC(=O)[C@H](Cc2ccc(O)cc2)NC(=O)[C@H](CC(C)C)NC(=O)[C@H](C(C)C)NC(=O)[C@H](CCCNC(=N)N)NC(=O)CNC(=O)[C@@H]2CCCN2C(=O)[C@H](CO)NC(=O)[C@H](CO)NC(=O)[C@H](Cc2c[nH]c3ccccc23)NC(=O)[C@H](CCSC)NC(=O)[C@H](CCCCN)NC(=O)[C@H](Cc2ccc(O)cc2)NC(=O)[C@H](Cc2c[nH]c3ccccc23)NC(=O)CNC(=O)[C@@H]2CCCN2C(=O)[C@@H]2CCCN2C(=O)[C@H](CC(C)C)NC(=O)[C@@H](NC(=O)[C@H](CCC(=O)O)NC(=O)[C@H](CCC(=O)O)NC(=O)[C@H](CC(=O)O)NC(=O)CCCC[C@@H]2SC[C@@H]3NC(=O)N[C@@H]32)CCCCNC(=O)CC[C@@H](C(=O)NCC(N)=O)NC(=O)[C@@H]2CCCN2C(=O)[C@H](CCCNC(=N)N)NC(=O)[C@H](CCC(=O)O)NC(=O)[C@H](Cc2c[nH]c3ccccc23)NC(=O)[C@H](CCCNC(=N)N)NC(=O)[C@H](Cc2c[nH]cn2)NC(=O)[C@H](C)NC(=O)[C@H](Cc2c[nH]cn2)NC(=O)[C@H]([C@@H](C)O)NC1=O
notes: also called cyclised WW-B1
In the test with VEGFR2-Fc fusion [5], B2 registered an equilibrium dissociation constant (Kd) of 0.031 µM.
As to MADEEKLPPGWYKMWSSPGRVLYVNDITHAHRWERPSG (designed binder, not shown: large carriers, also: fused to gpIII (M13 phage display), linker not given here, also called WW-B1) [clones B1 and H1, phage-displayed modified Pin1 WW domain peptide], the binding result in the test with human serum albumin [1] is given as “no binding”.
Regarding MADEEKLPPGWYKMWSSPGRVLYVNDITHAHRWERPSG (designed binder, not shown: large carriers, also: fused to maltose binding protein (MBP), order and linker not given here, also called WW-B1-MBP) [WW-B1 fused to maltose binding protein (MBP)], the half-maximal effective concentration (EC50) (in general, the midpoint of the concentration-response curve) with VEGFR2-Fc fusion [6] amounted to 0.076 µM.
For the molecule MADEEKLPPGWYKMWSSPGRVLYVNDITHAHQWERPSG (designed binder, not shown: large carriers, also: fused to gpIII (M13 phage display), linker not given here) [clones E1, E3, H3, C4, E4, G4 and H6, phage-displayed modified Pin1 WW domain peptide], the binding result with human serum albumin [1] is “no binding”.
As to MAVEEKLPPGWYKMWSSPGRVLYVNDITHAHQWERPSG (designed binder, not shown: large carriers, also: fused to gpIII (M13 phage display), linker not given here) [clone B4, phage-displayed modified Pin1 WW domain peptide], in the test with VEGFR2-Fc fusion [2], the binding result is reported as “binds”.
On to MADEEKLPPGWCKFWSTAGRVIYINRITGAKQWERPSG (designed binder, not shown: large carriers, also: fused to gpIII (M13 phage display), linker not given here) [clone A1, phage-displayed modified Pin1 WW domain peptide], for which the binding result in the test with human serum albumin [1] is “no binding”.
